According to the supplement of paper PMC6757056:
± gives the standard deviation of the averaged measurements.

B1: library; a variant is named by its letters at N, in order (parent)
chain: GCUGUCACCGGUGUAUUACCCUAGUGGUCGACCGGUCUGAUGAGUCUNNNNNNAGACGAAACAGC

Experiments:
hypoxanthine [1] = variants of: B1; assay: FACS-Seq fitted mean relative fluorescence mCherry/BFP without ligand (log10 relative fluorescence); ligand: hypoxanthine (xanthine aptamer); higher = higher reporter protein expression; conditions: HEK293T, ligand present: no
In short: (§1)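 The ribozyme switch sat in an mCherry reporter, delivered by lentivirus into HEK293T libraries along with an EF1α-BFP marker. Enriched cells were incubated 48 h with or without ligand, sorted into 6 bins by mCherry/BFP, and bin genomic DNA was PCR-amplified, barcoded and MiSeq-sequenced. Fluorescence equals the fitted normal mean of the bin counts after normalization. Those log10(mCherry/BFP) means were scaled to five spiked-in control ribozymes.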

hypoxanthine [2] = variants of: B1; assay: normalized RNA/DNA level with ligand (relative to sTRSVctl = 100) (log10 (% of sTRSVctl)); ligand: hypoxanthine (xanthine aptamer); higher = less ribozyme self-cleavage, higher mRNA level; conditions: ligand concentration (+) RNA-Seq: 5 mM, HEK293T, reporter: mCherry (pCS4076), ligand present: yes
Protocol: (§2)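 Hammerhead (sTRSV) ribozyme switch libraries with a ligand aptamer grafted on stem I and a randomized N4-6 loop II, cloned into the 3' UTR of mCherry and transiently transfected into HEK293T cells; RNA-Seq 72 h post transfection with ligand added 1 h before transfection; RNA read count / plasmid DNA read count normalized to the non-cleaving sTRSVctl (x100), log10; sequences with >100 DNA reads. FACS-Seq: lentiviral library sorted into 6 bins after 48 h ligand, log-normal fit mean of mCherry/BFP scaled to controls. Printed sequences are partial switch sequences.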

hypoxanthine [3] = variants of: B1; assay: normalized RNA/DNA level without ligand (relative to sTRSVctl = 100) (log10 (% of sTRSVctl)); ligand: hypoxanthine (xanthine aptamer); higher = less ribozyme self-cleavage, higher mRNA level; conditions: HEK293T, reporter: mCherry (pCS4076), ligand present: no
Protocol: as §2

hypoxanthine [4] = variants of: B1; assay: FACS-Seq fitted mean relative fluorescence mCherry/BFP with ligand (log10 relative fluorescence); ligand: hypoxanthine (xanthine aptamer); ligand concentration (+) FACS-Seq: 5 mM; higher = higher reporter protein expression; conditions: HEK293T, ligand present: yes
In short: as §1

| Variant | FACS-Seq fitted mean (log10) (hypoxanthine [1]) | normalized RNA/DNA level with ligand (log10) (hypoxanthine [2]) | normalized RNA/DNA level without ligand (log10) (hypoxanthine [3]) | FACS-Seq fitted mean (log10) (hypoxanthine [4]) |
| --- | --- | --- | --- | --- |
| ACAGUU | -0.0389 ± 0.048 | 1.914 ± 0.0073 | 1.73 ± 0.021 | 0.0577 ± 0.038 |
| ACAGUC | 0.656 ± 0.012 | 1.924 ± 0.0022 | 1.951 ± 0.0032 | 0.657 ± 0.04 |
| GCACAA | 0.663 ± 0.02 | 1.86 ± 0.046 | 1.75 ± 0.019 | 0.678 ± 0.026 |
| GCACAG | 0.227 ± 0.034 | 1.863 ± 0.00078 | 1.45 ± 0.021 | 0.0639 ± 0.076 |
| CCAAAU | 0.00231 ± 0.0079 | 1.93 ± 0.0062 | 1.83 ± 0.058 | 0.404 ± 0.042 |
| CCAAAC | 0.763 ± 0.049 | 1.93 ± 0.038 | 1.875 ± 0.012 | 0.528 ± 0.086 |
| GCACUU | 0.8516 ± 0.0035 | 1.965 ± 0.015 | 1.9 ± 0.068 | 0.751 ± 0.069 |
| GCACUG | 0.25 ± 0.031 | 1.877 ± 0.012 | 1.45 ± 0.029 | 0.464 ± 0.011 |
| GCACUA | 0.503 ± 0.091 | 1.939 ± 0.0064 | 1.81 ± 0.027 | 0.489 ± 0.08 |
| GCAUUG | 0.25 ± 0.015 | 1.88 ± 0.0068 | 1.4 ± 0.022 | 0.602 ± 0.062 |
| UCAUUU | 0.631 ± 0.012 | 1.96 ± 0.052 | 1.91 ± 0.031 | 0.769 ± 0.024 |
| CCAGAA | 0.561 ± 0.0022 | 1.94 ± 0.053 | 1.79 ± 0.053 | 0.631 ± 0.011 |
| CCAGAG | 0.628 ± 0.021 | 1.95 ± 0.038 | 1.51 ± 0.066 | 0.741 ± 0.022 |
| CCAAUG | 0.585 ± 0.11 | 1.929 ± 0.011 | 1.61 ± 0.046 | 0.683 ± 0.023 |
| GCACCU | 0.968 ± 0.14 | 1.942 ± 0.0073 | 1.94 ± 0.044 | 0.785 ± 0.08 |
| CCAGCC | -0.754 ± 0.048 | 2 ± 0.026 | 1.916 ± 0.013 | -0.409 ± 0.044 |
| ACAUUC | 0.36 ± 0.034 | 1.979 ± 0.0095 | 1.92 ± 0.062 | 0.421 ± 0.02 |
| ACACCC | 0.129 ± 0.016 | 1.97 ± 0.1 | 1.87 ± 0.12 | 0.45298 ± 0.00015 |
| ACCAAA | 0.2 ± 0.028 | 1.938 ± 0.011 | 1.8 ± 0.018 | 0.487 ± 0.046 |
| ACCAAC | 0.0939 ± 0.026 | 1.93 ± 0.025 | 1.883 ± 0.0074 | 0.317 ± 0.049 |
| ACCAAU | 0.003 ± 0.21 | 1.9 ± 0.091 | 1.74 ± 0.026 | 0.157 ± 0.038 |
| UCCACG | -0.24 ± 0.012 | 1.94 ± 0.14 | 1.71 ± 0.036 | 0.0232 ± 0.017 |
| ACAAUA | 0.442 ± 0.015 | 1.916 ± 0.017 | 1.81 ± 0.015 | 0.552 ± 0.018 |
| ACAAUG | 0.37 ± 0.017 | 1.87 ± 0.061 | 1.56 ± 0.053 | 0.638 ± 0.044 |

| Variant | FACS-Seq fitted mean (log10) (hypoxanthine [1]) | normalized RNA/DNA level with ligand (log10) (hypoxanthine [2]) | normalized RNA/DNA level without ligand (log10) (hypoxanthine [3]) | FACS-Seq fitted mean (log10) (hypoxanthine [4]) |
| --- | --- | --- | --- | --- |
| GAUUAU | 0.368 ± 0.062 | 1.945 ± 0.0077 | 1.839 ± 0.012 | 0.455 ± 0.019 |
| GAUUAG | 0.0562 ± 0.066 | 1.86 ± 0.075 | 1.39 ± 0.014 | 0.539 ± 0.085 |
| CCAACC | 0.551 ± 0.044 | 1.94 ± 0.021 | 1.95 ± 0.054 | 0.584 ± 0.055 |
| CCAACU | 0.611 ± 0.037 | 2.02 ± 0.025 | 1.945 ± 0.012 | 0.58 ± 0.015 |
| GCAGAA | 0.408 ± 0.02 | 1.88 ± 0.057 | 1.7 ± 0.031 | 0.472 ± 0.013 |
| GCAGAG | 0.09517 ± 0.00035 | 1.78 ± 0.031 | 1.35 ± 0.051 | 0.558 ± 0.037 |
| GCAGAU | -0.106 ± 0.1 | 1.92 ± 0.077 | 1.76 ± 0.031 | -0.1997 ± 0.0017 |
| CCAAGU | 0.347 ± 0.027 | 1.94 ± 0.024 | 1.863 ± 0.016 | 0.544 ± 0.032 |
| CCAAGC | 0.126 ± 0.14 | 1.938 ± 0.012 | 1.79 ± 0.15 | 0.366 ± 0.074 |
| GCAAUC | 0.498 ± 0.03 | 1.98 ± 0.058 | 1.77 ± 0.0096 | 0.531 ± 0.046 |
| GCAAUG | 0.028 ± 0.018 | 1.87 ± 0.05 | 1.436 ± 0.0057 | 0.443 ± 0.04 |
| GCAAUA | 0.126 ± 0.036 | 1.941 ± 0.016 | 1.87 ± 0.026 | 0.466 ± 0.071 |
| GCAUAU | 0.326 ± 0.025 | 1.93 ± 0.031 | 1.736 ± 0.0026 | 0.329 ± 0.014 |
| GCAUAA | 0.705 ± 0.011 | 1.92 ± 0.03 | 1.801 ± 0.015 | 0.6261 ± 0.0017 |
| ACAUCG | 0.306 ± 0.048 | 1.932 ± 0.019 | 1.57 ± 0.016 | 0.584 ± 0.052 |
| ACAUGA | 0.3098 ± 0.0019 | 1.91 ± 0.019 | 1.66 ± 0.026 | 0.509 ± 0.021 |
| ACAUGU | 0.399 ± 0.057 | 1.91 ± 0.052 | 1.65 ± 0.061 | 0.567 ± 0.024 |
| ACAUGG | 0.335 ± 0.022 | 1.87 ± 0.035 | 1.29 ± 0.027 | 0.631 ± 0.1 |
| CCCCAA | -0.321 ± 0.081 | 1.92 ± 0.018 | 1.78 ± 0.046 | -0.16 ± 0.025 |
| ACAAGA | 0.164 ± 0.1 | 1.891 ± 0.0031 | 1.65 ± 0.037 | 0.121 ± 0.037 |
| ACAAGC | 0.743 ± 0.017 | 1.92 ± 0.033 | 1.76 ± 0.015 | 0.863 ± 0.082 |
| ACAAGG | -0.00738 ± 0.11 | 1.83 ± 0.065 | 1.26 ± 0.024 | 0.113 ± 0.14 |
| GCCAUG | 0.392 ± 0.0043 | 1.87 ± 0.094 | 1.48 ± 0.15 | 0.683 ± 0.074 |
| GCCAUA | 0.231 ± 0.083 | 1.95 ± 0.049 | 1.85 ± 0.079 | 0.487 ± 0.0075 |

| Variant | FACS-Seq fitted mean (log10) (hypoxanthine [1]) | normalized RNA/DNA level with ligand (log10) (hypoxanthine [2]) | normalized RNA/DNA level without ligand (log10) (hypoxanthine [3]) | FACS-Seq fitted mean (log10) (hypoxanthine [4]) |
| --- | --- | --- | --- | --- |
| ACAUAG | 0.305 ± 0.026 | 1.84 ± 0.072 | 1.52 ± 0.024 | 0.522 ± 0.046 |
| ACAUAA | 0.531 ± 0.011 | 1.899 ± 0.0086 | 1.79 ± 0.021 | 0.532 ± 0.029 |
| AAUUCA | 0.486 ± 0.061 | 1.93 ± 0.049 | 1.86 ± 0.025 | 0.567 ± 0.082 |
| AAUUCG | 0.321 ± 0.022 | 1.9 ± 0.041 | 1.52 ± 0.043 | 0.729 ± 0.034 |
| UCACAU | -0.364 ± 0.044 | 1.93 ± 0.051 | 1.8 ± 0.021 | 0.26 ± 0.027 |
| CCAUUC | -0.142 ± 0.078 | 2.022 ± 0.0033 | 1.9 ± 0.07 | 0.309 ± 0.014 |
| ACAGGU | 0.51 ± 0.04 | 1.858 ± 0.0068 | 1.49 ± 0.082 | 0.744 ± 0.054 |
| ACAGGA | 0.278 ± 0.028 | 1.905 ± 0.013 | 1.66 ± 0.043 | 0.473 ± 0.069 |
| ACAGGG | 0.428 ± 0.034 | 1.83 ± 0.038 | 1.44 ± 0.032 | 0.788 ± 0.041 |
| UCAGCG | 0.383 ± 0.009 | 1.94 ± 0.067 | 1.8203 ± 0.0012 | 0.656 ± 0.083 |
| GCAGGA | 0.661 ± 0.024 | 1.9091 ± 0.0012 | 1.72 ± 0.035 | 0.705 ± 0.051 |
| GCAGGG | -0.0762 ± 0.0096 | 1.88 ± 0.028 | 1.506 ± 0.0099 | 0.479 ± 0.017 |
| AAUUAG | 0.404 ± 0.012 | 1.86 ± 0.037 | 1.52 ± 0.032 | 0.681 ± 0.03 |
| UCACUG | 0.184 ± 0.08 | 1.89 ± 0.041 | 1.55 ± 0.012 | 0.463 ± 0.081 |
| GCAAAU | -0.00409 ± 0.019 | 1.932 ± 0.0088 | 1.75 ± 0.043 | 0.371 ± 0.013 |
| GCAAAC | 0.411 ± 0.03 | 1.91 ± 0.023 | 1.6 ± 0.036 | 0.455 ± 0.055 |
| GCAGCC | 0.465 ± 0.1 | 1.99 ± 0.044 | 1.78 ± 0.023 | 0.532 ± 0.069 |
| GCAGCA | 0.363 ± 0.034 | 1.983 ± 0.0069 | 1.827 ± 0.016 | 0.663 ± 0.015 |
| UCAAAA | 0.491 ± 0.022 | 1.934 ± 0.013 | 1.717 ± 0.0054 | 0.446 ± 0.019 |
| UCAAAU | 0.4822 ± 0.0021 | 1.92 ± 0.02 | 1.77 ± 0.036 | 0.54 ± 0.053 |
| UCAAAG | -0.374 ± 0.059 | 1.92 ± 0.072 | 1.68 ± 0.039 | -0.184 ± 0.025 |
| CAUUUA | -0.0161 ± 0.022 | 1.98 ± 0.036 | 1.77 ± 0.034 | 0.532 ± 0.019 |
| CAUUUC | 0.66 ± 0.057 | 1.92 ± 0.043 | 1.9 ± 0.069 | 0.774 ± 0.066 |
